The values that follow come from FireProtDB (doi:10.1021/bi000610b).

The Tm is the temperature at which the thermal transition is half complete.

For the data set the following is noted: Chlamydomonas reinhardtii, Thermal, glycine-HCl 10 mM, reversible: yes, whole UniProt chain shown.

Several values for one entry are separate records, joined by “and”; a condition that tells them apart may be missing. Equal entries are not always repeated.

B1: Thioredoxin H-type wild type, P80028 (protein)
chain: MGGSVIVIDSKAAWDAQLAKGKEEHKPIVVDFTATWCGPCKMIAPLFETLSNDYAGKVIFLKVDVDAVAAVAEAAGITAMPTFHVYKDGVKADDLVGASQDKLKALVAKHAAA
On to B1, for which the Tm reads like this: (pH 2.13, Fluorescence) 35.4 °C; (pH 2.25, CD) 37.7 °C and 34.5 °C; (pH 2.25, DSC) 40 °C; (pH 2.25, Fluorescence) 42.7 °C; (pH 2.5, CD) 47.3 °C and 46.6 °C; (pH 2.5, DSC) 51.1 °C. Besides, the Tm (pH 2.5, Fluorescence) was 49.2 °C; the Tm (pH 2.75, CD) is 57.5 °C and 53.4 °C; the Tm (pH 3, CD) is 63 °C and 61.4 °C; the Tm (pH 3, DSC) was determined as 66.4 °C; the Tm (pH 3, Fluorescence) is 65.3 °C; the Tm (pH 3.25, DSC) was 73.6 °C. The “unfolding enthalpy (van 't Hoff)” value is, setting by setting: (pH 2.13, Fluorescence) 23.4 kcal/mol; (pH 2.25, CD) 21.5 kcal/mol and 17.9 kcal/mol; (pH 2.25, Fluorescence) 31.8 kcal/mol; (pH 2.5, CD) 42.5 kcal/mol and 38.5 kcal/mol; (pH 2.5, Fluorescence) 40.9 kcal/mol; (pH 2.75, CD) 59.5 kcal/mol and 54.2 kcal/mol. Moreover, the “unfolding enthalpy (van 't Hoff)” value was 76.5 kcal/mol and 65.2 kcal/mol (pH 3, CD); 66.9 kcal/mol (pH 3, Fluorescence). Besides, the “unfolding enthalpy (calorimetric)” value by setting is: (pH 2.5, DSC) 52.6 kcal/mol; (pH 3, DSC) 77.4 kcal/mol; (pH 3.25, DSC) 80.8 kcal/mol.
